Patent US20090069215A1, “Acylated Single Chain Insulin” (Novo Nordisk A/S, priority 2006, published 2009)

target: purified recombinant human insulin receptor-exon 11 (human) (UniProt P06213); test: assay (I): SPA competition, displacement of A14 Tyr[125I]-human insulin from recombinant human insulin receptor; reference human insulin; settings: not given
Sequence (P06213 other isoform, or with tags, fused parts or gaps limits assumed, form in doubt): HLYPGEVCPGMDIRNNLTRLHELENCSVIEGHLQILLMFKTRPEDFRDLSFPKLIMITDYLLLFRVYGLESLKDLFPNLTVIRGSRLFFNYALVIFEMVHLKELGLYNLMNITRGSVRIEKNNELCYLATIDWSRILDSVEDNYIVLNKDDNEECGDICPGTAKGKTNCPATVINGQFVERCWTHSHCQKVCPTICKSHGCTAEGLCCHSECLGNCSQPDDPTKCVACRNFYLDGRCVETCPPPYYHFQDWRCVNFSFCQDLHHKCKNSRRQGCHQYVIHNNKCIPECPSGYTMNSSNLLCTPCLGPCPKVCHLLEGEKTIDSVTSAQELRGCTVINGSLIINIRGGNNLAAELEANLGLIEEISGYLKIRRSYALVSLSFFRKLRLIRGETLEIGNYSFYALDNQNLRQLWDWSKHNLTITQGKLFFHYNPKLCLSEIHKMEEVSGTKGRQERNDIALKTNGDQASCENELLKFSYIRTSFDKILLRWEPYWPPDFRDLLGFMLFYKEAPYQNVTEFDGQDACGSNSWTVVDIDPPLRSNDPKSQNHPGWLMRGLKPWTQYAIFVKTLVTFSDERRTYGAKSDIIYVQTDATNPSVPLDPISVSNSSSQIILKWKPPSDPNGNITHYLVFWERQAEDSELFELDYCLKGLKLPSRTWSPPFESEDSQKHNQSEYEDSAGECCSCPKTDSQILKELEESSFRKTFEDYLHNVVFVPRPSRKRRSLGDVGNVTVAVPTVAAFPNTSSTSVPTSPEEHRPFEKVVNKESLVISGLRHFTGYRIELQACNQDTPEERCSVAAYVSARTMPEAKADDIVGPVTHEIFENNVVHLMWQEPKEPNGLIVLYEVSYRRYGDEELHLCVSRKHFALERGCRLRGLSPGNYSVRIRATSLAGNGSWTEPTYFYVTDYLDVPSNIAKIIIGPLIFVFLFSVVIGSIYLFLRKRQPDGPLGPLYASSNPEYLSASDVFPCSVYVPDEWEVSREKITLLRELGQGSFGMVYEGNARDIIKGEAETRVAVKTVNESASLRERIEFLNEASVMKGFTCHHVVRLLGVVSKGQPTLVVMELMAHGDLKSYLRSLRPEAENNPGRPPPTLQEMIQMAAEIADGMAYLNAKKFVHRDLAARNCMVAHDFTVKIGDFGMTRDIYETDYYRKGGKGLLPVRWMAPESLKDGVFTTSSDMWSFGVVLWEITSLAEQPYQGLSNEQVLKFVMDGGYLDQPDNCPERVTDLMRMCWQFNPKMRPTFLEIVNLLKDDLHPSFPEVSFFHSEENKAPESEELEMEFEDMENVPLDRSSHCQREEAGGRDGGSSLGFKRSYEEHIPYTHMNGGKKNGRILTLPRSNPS

Point of comparison: “B(1-29)-B22K(N(eps)heptadecandioyl-g-L-Glu)-B29H-TGLGSGR-A(1-21)-A18Q-A21G Human insulin (from UniProt P01308 25-53; P01308 90-110) (ligand)”, insulin receptor binding relative to that of human insulin 53%. Against it:
- B(1-29)-B22K((eps)hexadecandioyl-gGlu)-B29H-TGLGSGR-A(1-21)-A18Q-A21G Human insulin (from UniProt P01308 25-53; P01308 90-110) (ligand) — lower, 46%
- B(1-29)-B22K((eps)hexadecandioyl-gGlu)-B29Q-TGLGSGR-A(1-21)-A18Q-A21G Human insulin (from UniProt P01308 25-53; P01308 90-110) (ligand) — higher, 154%
- B(1-29)-B22K((eps)myristoyl)-B29A-VGLSSGQ-A(1-21)-A18Q Human Insulin (from UniProt P01308 25-53; P01308 90-110) (ligand) — lower, 46%
- B(1-29)-B22K(N(eps)heptadecandioyl)-B29H-TGLGSGR-A(1-21)-A18Q-A21G Human insulin (from UniProt P01308 25-53; P01308 90-110) (ligand) — higher, 119%
- B(1-29)-B22K(N(eps)hexadecandioyl-g-L-Glu-amide)-B29H-TGLGSGR-A(1-21)-A18Q-A21G Human insulin (from UniProt P01308 25-53; P01308 90-110) (ligand) — higher, 105%
- B(1-29)-B22K(N(eps)hexadecandioyl-gGlu)-B29A-VGLSSGQ-A(1-21)-A18Q Human Insulin (from UniProt P01308 25-53; P01308 90-110) (ligand) — higher, 64%
- B(1-29)-B22K(N(eps)octadecandioyl)-B29A-VGLSSGQ-A(1-21)-A18Q Human Insulin (from UniProt P01308 25-53; P01308 90-110) (ligand) — lower, 16%

target: human insulin receptor (Homo sapiens, UniProt P06213); test: Insulin receptor binding, SPA antibody capture assay (assay (I)); settings: recombinant human insulin receptor - exon 11, A14 Tyr[125I]-human insulin tracer, human insulin = 100%
Sequence (P06213 28-746 isoform P06213-2 limits assumed): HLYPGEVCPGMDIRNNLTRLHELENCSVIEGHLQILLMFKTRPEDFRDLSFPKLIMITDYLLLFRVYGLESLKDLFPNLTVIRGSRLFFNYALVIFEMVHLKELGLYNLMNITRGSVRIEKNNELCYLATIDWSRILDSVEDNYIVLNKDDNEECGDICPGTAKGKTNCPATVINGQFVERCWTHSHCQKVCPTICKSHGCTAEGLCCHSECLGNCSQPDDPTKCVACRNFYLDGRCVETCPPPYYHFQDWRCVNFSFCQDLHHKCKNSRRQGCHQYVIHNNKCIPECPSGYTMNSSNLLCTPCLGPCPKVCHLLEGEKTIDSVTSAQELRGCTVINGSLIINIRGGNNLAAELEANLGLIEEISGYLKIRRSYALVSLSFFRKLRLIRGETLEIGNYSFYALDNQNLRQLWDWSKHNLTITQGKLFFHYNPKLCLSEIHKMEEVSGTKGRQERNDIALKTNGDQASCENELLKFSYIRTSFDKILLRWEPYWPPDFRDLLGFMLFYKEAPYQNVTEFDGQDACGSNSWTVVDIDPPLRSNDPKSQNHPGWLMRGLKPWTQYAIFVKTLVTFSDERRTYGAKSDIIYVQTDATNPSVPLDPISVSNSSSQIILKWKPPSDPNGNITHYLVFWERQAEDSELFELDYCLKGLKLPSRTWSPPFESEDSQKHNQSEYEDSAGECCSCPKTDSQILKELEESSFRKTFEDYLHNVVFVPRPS
Sequence (P06213 763-1382 partner limits assumed): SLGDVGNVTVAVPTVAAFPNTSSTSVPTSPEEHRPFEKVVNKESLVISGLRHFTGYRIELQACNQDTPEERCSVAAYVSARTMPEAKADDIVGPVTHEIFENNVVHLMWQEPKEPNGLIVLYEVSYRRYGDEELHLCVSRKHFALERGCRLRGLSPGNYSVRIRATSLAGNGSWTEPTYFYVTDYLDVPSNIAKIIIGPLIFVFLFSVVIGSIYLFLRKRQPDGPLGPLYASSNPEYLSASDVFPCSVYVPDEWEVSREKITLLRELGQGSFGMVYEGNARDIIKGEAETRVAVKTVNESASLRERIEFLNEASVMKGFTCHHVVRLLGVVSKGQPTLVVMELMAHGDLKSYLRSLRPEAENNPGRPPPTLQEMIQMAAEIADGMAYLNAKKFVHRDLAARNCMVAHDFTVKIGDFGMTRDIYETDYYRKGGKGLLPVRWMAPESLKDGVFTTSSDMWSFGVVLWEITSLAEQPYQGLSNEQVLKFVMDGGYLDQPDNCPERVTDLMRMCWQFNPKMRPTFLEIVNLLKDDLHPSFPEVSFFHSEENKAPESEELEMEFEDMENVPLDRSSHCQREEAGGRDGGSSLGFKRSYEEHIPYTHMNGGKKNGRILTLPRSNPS
Description: Insulin Receptor Binding of the Acylated, Single-Chain Insulin
The affinity of the acylated, single-chain insulins for the human insulin receptor can be determined by a SPA assay (Scintillation Proximity Assay) microtiterplate antibody capture assay. SPA-PVT antibody-binding beads, anti-mouse reagent (Amersham Biosciences, Cat No. PRNQ0017) are mixed with 25 ml of binding buffer (100 mM HEPES pH 7.8; 100 mM sodium chloride, 10 mM MgSO4, 0.025% Tween-20). Reagent mix for a single Packard Optiplate (Packard No. 6005190) is composed of 2.4 μl of a 1:5000 diluted purified recombinant human insulin receptor—exon 11, an amount of a stock solution of A14 Tyr[125I]-human insulin corresponding to 5000 cpm per 100 μl of reagent mix, 12 μl of a 1:1000 dilution of F12 antibody, 3 ml of SPA-beads and binding buffer to a total of 12 ml. A total of 100 μl is then added and a dilution series is made from appropriate samples. To the dilution series is then added 100 μl of reagent mix and the samples are incubated for 16 hours while gently shaken. The phases are then separated by centrifugation for 1 min and the plates counted in a Topcounter. The binding data are fitted using the nonlinear regression algorithm in the GraphPad Prism 2.01 (GraphPad Software, San Diego, Calif.).

Point of comparison: “B(1-29)-B22K(N(eps)heptadecandioyl)-B29H-TGLGSGR-A(1-21)-A18Q-A21G Human insulin [Example 7]”, “insulin receptor binding relative to that of human insulin” value 119%. Against it:
- B(1-29)-B22K((eps)hexadecandioyl-gGlu)-B29H-TGLGSGR-A(1-21)-A18Q-A21G Human insulin [Example 4] — lower, 46%
- B(1-29)-B22K((eps)hexadecandioyl-gGlu)-B29Q-TGLGSGR-A(1-21)-A18Q-A21G Human insulin [Example 5] — higher, 154%
- B(1-29)-B22K((eps)myristoyl)-B29A-VGLSSGQ-A(1-21)-A18Q Human Insulin [Example 1] — lower, 46%
- B(1-29)-B22K(N(eps)heptadecandioyl-g-L-Glu)-B29H-TGLGSGR-A(1-21)-A18Q-A21G Human insulin [Example 8] — lower, 53%
- B(1-29)-B22K(N(eps)hexadecandioyl-g-L-Glu-amide)-B29H-TGLGSGR-A(1-21)-A18Q-A21G Human insulin [Example 6] — lower, 105%
- B(1-29)-B22K(N(eps)hexadecandioyl-gGlu)-B29A-VGLSSGQ-A(1-21)-A18Q Human Insulin [Example 3] — lower, 64%
- B(1-29)-B22K(N(eps)octadecandioyl)-B29A-VGLSSGQ-A(1-21)-A18Q Human Insulin [Example 2] — lower, 16%
